The source of these data is patent US20050288489A1 (published 2005).

As usually defined, the Kd is a measure of binding affinity in units of concentration.

Experiment [1] has as its target CaV1.2 (α1C) subunit expressed in Xenopus laevis oocytes by mRNA injection. As to the kind of experiment: cell-based or functional assay.
Experiment [2] has as its target fluorescein-labeled AID peptide, fluorescein-…-COOH. As to the kind of experiment: fluorescence polarization, equilibrium isotherm titration. On the technique in general: Polarisation of emitted light reports the rotation of a fluorescent probe.
For experiment [3] the target is unchanged. Nature of the experiment: fluorescence polarization, β protein titrated onto 0.5 nM fluorescein-labeled AID peptide.
For experiment [4] the target is unchanged. Nature of the experiment: fluorescence polarization.
Experiment [5] has as its target T1, full-length VDCC β2a mutant M246 changed to alanine (rabbit, UniProt P54288-2 1-606).
T1 construct: mature
Nature of the experiment: fluorescence polarization.

Experiment [6] addresses T2, full-length VDCC β2a mutant L392 changed to alanine (rabbit, UniProt P54288-2 1-606).
T2 construct: mature
As to the kind of experiment: fluorescence polarization.

fluorescein = fluorescein label

In experiment [1], “full-length rat VDCC β3 subunit protein (recombinant, tag removed) (from UniProt P54287 1-484)” displayed a Steady-state activation, V1/2 (mV) of 10 mV and a Steady-state activation, k (mV) of 10.6 mV.
With “β3 subunit expressed in oocytes by mRNA injection”, in experiment [1], the Current amplitude (A), I at 20 mV is -0.56; the Current amplitude (A), I at 30 mV was -0.48; the Steady-state activation, V1/2 (mV) amounted to 10.7 mV; the Steady-state activation, k (mV) stood at 9.08 mV.
“VDCC β2a linkerless core (domain I plus domain II, removable linker core after TEV digestion) (from UniProt P54288 51-172; P54288 230-449)”: the equilibrium dissociation constant (Kd) is 6 to 15 nM in experiment [2] and 6.6 nM in experiment [3].
In experiment [1], “β3 core protein (from UniProt P54287 21-370)” registered a Current amplitude (A), I at 20 mV of -0.45; a Current amplitude (A), I at 30 mV of -0.41; a Steady-state activation, V1/2 (mV) of 10.7 mV; a Steady-state activation, k (mV) of 10.1 mV.
For “full-length β2a protein as injected into oocytes (P122R) (from UniProt P54288 1-606)” the same measures were -0.71, -0.49, 3.68 mV and 8.48 mV.
Take “full-length VDCC β2a subunit (rabbit, recombinant, histidine tag removed by TEV protease) (from UniProt P54288 44-632)”: the Kd in experiment [2] is 6 to 15 nM; in experiment [4], 26 nM; in experiment [3], 16.1 nM.
In experiment [1], “β2a domain I + domain II prepared by proteolysis of full length protein and subsequent purification (injected) (from UniProt P54288 25-146; P54288 204-423)” returned a Current amplitude (A), I at 20 mV of -0.44; a Current amplitude (A), I at 30 mV of -0.34; a Steady-state activation, V1/2 (mV) of 3.24 mV; a Steady-state activation, k (mV) of 9.49 mV.
In experiment [1], “β2a core protein as injected into oocytes (P122R) (from UniProt P54288 25-422)” gave a Current amplitude (A), I at 20 mV of -0.87; a Current amplitude (A), I at 30 mV of -0.7; a Steady-state activation, V1/2 (mV) of 6.84 mV; a Steady-state activation, k (mV) of 8.43 mV.
As to “β2a domain I protein as injected into oocytes (P122R) (from UniProt P54288 25-146)”, in experiment [1], the Current amplitude (A), I at 20 mV is -0.16; the Current amplitude (A), I at 30 mV is -0.18; the Steady-state activation, V1/2 (mV) is 24 mV; the Steady-state activation, k (mV) was 12.2 mV.
For fluorescein-GGQQLEEDLRGYNSWITQGE-OH (also called labeled peptide; WT) [fluorescein-labeled AID peptide, fluorescein-GGQQLEEDLRGYNSWITQGE-COOH], the Kd in experiment [5] came to 1700 nM; in experiment [6] it was 340 nM.
